# Data published in patent publication US20260069689A1 (Regeneron, published 2026).
# Molecular target: SARS-COV-2 RBD extracellular domain expressed with a C-terminal myc-myc-hexahistidine tag (SARS-CoV-2)
# Experiment: SPR (Biacore), mAb captured by anti-human Fc, RBD-mmH in solution, 25 C
Binder,Kd [nM],koff [s⁻¹],kon [M⁻¹ s⁻¹],t½ [min]
"mAb14282 (antibody, V domains shown) VH: QVQLVQSGAEVKKPGASVKVSCKASGYIFTDHYMHWVRQAPGQGLEWMGWINPNSGATNYAQNFQGRVTMTRDTSIITVYMELSRLRSDDTAVYYCARDSSPYMIRYTMDVWGQGTTITVSS VL: QSALTQPASVSGSPGQSITISCTGTSSDVGSYNLVSWYQQHPGKAPKLMIYELTKRPSGVSNRFSGSKSGNTASLTISGLQAEDEADYYCSSYRGSVTDVVFGGGTKLTVLG",4.97,0.00957,1.93e+06,1.2
"mAb14281 (antibody, V domains shown) VH: QVQLVQSGADVKKPGASVKVSCKTSGYIFTGYYIHWVRQAPGQGLEWMGWINPNSGGTNSAQKFQGRVTMTRDTSISTVYMELSRLRSDDTAVYYCAKSNSFSVLDYNFDYWGQGTLVTVSS VL: SSELTQDPAVSVALGQTVRITCQGDSLRSYYASWYQQKPGQAPVLVIYDKNNRPSGIPDRFSGSSSGNTASLTITGAQAEDEADYYCNSRDSSRNHLVVFGGGTKLTVLG",5.02,0.00554,1.1e+06,2.1
"mAb14230 (antibody, V domains shown) VH: EVQLVESGGGLIQPGRSLRLSCAASGFTFDDYAMHWVRQAPGKGLEWVSGISWNSVSIDYADSVKGRFTISRDNAKNSLYLQMTSLTVEDTALYYCAKAFGYETLTGSDYFAYWGPGTLVTVSS VL: EIVLTQSPGTLSLSPGERATLSCRASQTVISTYLAWYQQKPGQSPRLLIYGASSRATGIPDRFSGSGSGTDFTLTISRLEPEDFAVYYCQQYGSSPQLTFGGGTKVEIKR",7.51,0.00852,1.13e+06,1.4
"mAb14256 (antibody, V domains shown) VH: QVQLQESGPGLVKPSETLSLTCTVSGGSISSHYWSWIRQPPGKGLEWIGYIYYSGSSNYNPSLKSRVTISVDTSKNQFSLKLNSVTAADTAVYYCARHYDILTGFDWFDPWGQGTLVTVSS VL: QSVLTQPPSVSGAPGQRVTISCTGSSSNIGTHYDVHWYQQLPGTAPKLLIYGNSNRPSGVPDRFSGSKSGTSASLAITGLQAEDEADYYCQSFDNSLTAPYVFGTGTKVTVLG",8.32,0.00927,1.11e+06,1.2
"mAb14285 (antibody, V domains shown) VH: QVQLVQSGAEVKKPGASVKVSCKASGYTFTGYFIHWVRQAPGQGLEWMGWISPISGGTNYAQKFQGRVTVTRDTSITTAYMELSRLTSDDTAVYHCAREGGTWKGDFDYWGQGTLVTVSS VL: QSALTQPASVSGSPGQSITISCTGTSSDVESYNLVSWYQQHPGKAPKLMIYEGSKRPSGVSNRFSGSKSGNTASLTISGLQAEDEADYYCSSYAGSSTWVFGGGTKLTVLG",11.7,0.0211,1.8e+06,0.5
"mAb14280 (antibody, V domains shown) VH: QVQLVQSGAEVKKPGASVRVSCKASGYTFTGNYIHWVRQAPGQGLEWMAWINPNSGGKNYAQKFQGRVTLTRDTSVNTAYMELSRLRSDDTAMYYCARDVNYNILTGPGGLWGQGTLVTVSS VL: QSALTQPPSASGSPGQSVTISCTGTSSDVGGYNFVSWYQQHPGKAPKLMIYEVSKRPSGVPDRFSGSKSGNTASLTVSGLQAEDEADYYCSSYAGSNNFVFGTGTKVTVLG",15.4,0.0255,1.66e+06,0.5
"mAb14234 (antibody, V domains shown) VH: QVQLVESGGGVVQPGRSLRLSCAASGFTFSSYGIHWVRQAPGKGLEWVAIIWYDGSEKYYADSVKGRFTISRDNSKNTLFLQMNSLEAEDTAVYYCARGPDLLTGYYNYFYYGMDVWGQGTTVTVSS VL: QSVLTQPPSVSGAPGQRVTISCTGSSSNIGIGYDVHWYQQLPGTVPKLLIYGNTNRPSGVPDRFSGSKSGTSASLAITGLQAEDEADYYCQSYDSSLSSYVFGTGTKVTVLG",20.5,0.0113,550000,1
"mAb14292 (antibody, V domains shown) VH: EVQLVESGGGLVQPGGSLRLSCVASGFAFSTYEMNWVRQAPGKGLEWVSYISSSGSTIYYADSVKGRLTISRDNVKNSLYLQMNSLRVEDTAIYYCARDAIRNNDILTDPATFDPWGQGTLVTVSS VL: not shown",40.9,0.0171,417000,0.7
"mAb15156 (antibody, V domains shown) VH: QLQLQESGPGLVKSSETLSLTCTVSASITGSTYYWGWIRQPPGKGLEWIGSIYYSGTTYYKASLKSRVTISVDTSKNQFSLKLTSVTVADTAVYYCVSHLLGNYHKYGMDVWGQGTTVTVSS VL: not shown",4.18,0.00121,289000,9.6
"mAb15157 (antibody, V domains shown) VH: EVQLVESGGALVQPGGSLRLSCAASGFPFTIYAMTWVRQAPGKGLEWVSVITGSGDSTYYADSVKGRFTISRDNSKNTLYLQMNSLRAEDTAVYYCVKTGEGFFYYYYGMDVWGQGTTVTVSS VL: QSVLTQPPSVSAAPGQKVTISCSGSSSNIGNSYISWYQQLPGTAPKLLIYVNNKRPSGIPDRFSGSKSGTSATLGITGLQTGDEADYYCGTWDSSLSAGVFGSGTKVTVLG",4.49,0.00125,278000,9.3
"mAb15158 (antibody, V domains shown) VH: EVQLVESGGGLVQPGGSLRLSCAASGFSFSSNWMSWVRQAPGKGLEWVGNINQDGSEKYYVDSVEGRFTISRDNAKKSLYLQMNSLRAEDTAVYYCARDLGVLWFGDFVDWGQGALVTVSS VL: DIQMTQSPSSLSASVGDRVTITCRASQAISNSLAWYQQKPGKAPKLLLYAASTLESGVPSRFSGSGSGTDYTLTISSLQPEDFATYYCLQYYGSPRTFGQGTKVEIKR",0.779,8.12e-05,104000,142
"mAb14312 (antibody, V domains shown) VH: EVQLVESGGGLVQPGGSLRLSCAASGFTVSRSYMTWVRQAPGKGLEWVSVIFTGGRTDHADSVKGRFTISRHNSKNTLYLQMNSLRTEDTAVYYCARVAIVGATGAFDIWGQGTMVTVSS VL: QSVLTQPPSVSGAPGQRVTISCTGSSSNIGAGDDVHWYQQLPGTAPKLLIYGNSNRPSGVPDRFSGSKSGTSASLAITGLQAEDEADYYCQSYDSSLSGSVVFGGGTKLTVLG",0.606,0.000929,1.53e+06,12.4
"mAb15159 (antibody, V domains shown) VH: EVQLVESGGGLVQPGGSLRLSCAASGITVSSNYMTWVRQAPGKGLEWVSLIYSGGSTFYADSVRGRFTISRDNSKNTLYLQMNSLRAEDTAVYYCARDLVVYGMDVWGQGTTVTVSS VL: DIQLTQSPSSLSASVGDRVTITCRASQGISSYLAWYQQKPGKAPKLLIYAASTLQSGVPSRFSGSGSGTDFTLTISSLQPEDFATYYCQHLNSDPHTFGQGTKLEIKR",2.66,0.00013,48900,88.8
"mAb15161 (antibody, V domains shown) VH: EVQLVESGGGLVQPGGSLRLSCAASGFTFSSYEMNWVRQAPGKGLEWVSYISSSGSILYYADSVKGRFTASRDNAKNSLYLQMNSLRAEDTGVYYCARREYQLLRPFEFWGQGTLVTVSS VL: not shown",1.35,0.000234,173000,49.3
"mAb15162 (antibody, V domains shown) VH: EVQLVETGGGLIQPGGSLRLSCAASEFIVSRNYMSWVRQAPGKGLEWVSLIYSGGSTYYADSVKGRFTISRDNSKNILYLQMNSLRAEDTAVYYCARDRGGISDYWGQGTLVTVSS VL: DIQMTQSPSSLSASVGDRVTITCQASQDINKYLNWFQQKPGKAPKLLIYDASNLETGVPSRFSGSGSGTDFTFTISSLQPEDIATYYCQQYDNLPRTFGQGTKLEIKR",7.3,0.00085,116000,13.6
"mAb15163 (antibody, V domains shown) VH: EVQLVETGGGLIQPGESLRLSCAASGFIVSTNYMNWVRQAPGKGLEWVSVIYRGGSTYYADSVKGRFTISRDNSKNTLFLQMNSLRAEDTAVYYCARGHEDFDYDTPASGAFDIWGQGTMVTVSS VL: QSALTQPPSASGSPGQSVTISCTGTSSDVGGHNYVSWYQQHPGKAPKVMIYEVSKRPSGVPDRFSGSKSGNTASLTVSGLQAEDEADYYCSSYAGSNKFVFGTGTKVTVLG",0.0779,1.67e-05,218000,693
"mAb15164 (antibody, V domains shown) VH: EVQLVESGGGLVQPGGSLRLSCAASGFAVSSNYMTWVRQAPGKGLEWVATIYSGDSTYYADSVKGRFTISRHNSKNTLSLQMNSLRADDTAIYYCARLSGVLSGTYNGAFDIWGQGTMVTVSS VL: QSALTQPASVSGSPGQSITISCTGTSSDFGNYNIVSWYQQHPGQAPKVMIYEGNKRPSGVSNRFSGSKSGHTASLTISGLQAEDEADYYCSSYAGSSTWVFGGGTKLTVLG",1.53,0.000349,228000,33.1
"mAb15165 (antibody, V domains shown) VH: EVQLVESGGGLVQPGGSLRLSCAASGFTVSSNYMSWVRQAPGKGLEWVSAIYSGDSTYYADSVKGRFTISKDNSKNTLYLQMNSLRGEDTAVYYCARLGGALQAYDGAFDYWGQGTLATVSS VL: QSALTQPASVSGSPGQSITISCTGTSSDFGSYNLVSWYQQHPGKAPKLMIYEGNKRPSGVSIRFSGSKSGNTASLTISGLQAEDEADYYCSSYAGSSTWVFGGGTKLTVLG",0.393,0.000212,539000,54.6
"mAb15166 (antibody, V domains shown) VH: EVQLVESGGGLVQPGGSLRLSCAASGFTVTSNYMSWVRQAPGKGLEWVSAIYSGESTYYADSVKGRFTISRDSSKNTLYLQMNSLRVEDTAVYYCASIHDYSNYVGGFDPWGQGTLVTVSS VL: QSALTQPASVSGSPGQSITISCTGPSSDFGSYNLVSWYQQHPGKAPKLMIYEGTKRPSGVSNRFSGSKSGNTASLTISGLQAEDEADYYCSSYAGSSTWVFGGGTKLTVLG",21.7,0.00535,246000,2.2
"mAb15170 (antibody, V domains shown) VH: EVQLVESGGGLVQPGGSLRLSCAATGITVSSNYMSWVRQAPGKGLEWVSLIYSGGSTFYADSVKGRFTISRHNSKNTLYLQMSSLRAEDTAVYYCARDLVDFGMDVWGQGTTVTVSS VL: DIQLTQSPSSLSASVGDRVTITCRASQGISNYLAWYQQKPGKAPKLLIYAASTLQSGVPSRFSGSGSGTDFTLTISSLQPEDFGTYYCQQLNSDSPTFGQGTKVEIKR",0.1,1.53e-05,200000,756
